This test deals with Biotin-Lysozyme (hen) (UniProt P00698). Kind of test: flow. Particulars: scFv.
Chain of Biotin-Lysozyme (hen) (P00698 19-147): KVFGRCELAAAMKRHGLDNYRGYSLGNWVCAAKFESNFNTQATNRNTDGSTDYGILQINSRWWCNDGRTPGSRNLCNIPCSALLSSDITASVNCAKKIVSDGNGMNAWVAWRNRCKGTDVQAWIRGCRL

Turning to scFv D1.3 (from UniProt P32781 19-87), the Kd came to 500 pM.

Consider “scFv D1.3 (from UniProt P42212 1-238; P32781 19-87)”, for which the Kd is 500 pM.

By Kd is commonly meant the concentration at which binding is half-saturated. Read a low Kd as higher affinity.

The values above are taken from patent publication US20170204445A1, “IN VIVO SITE-SPECIFIC PROTEIN TAGGING USING ENGINEERED SORTASE VARIANTS” (priority 2016, published 2017).
